From patent US20160051688A1 (Indiana University Research and Technology Corporation, priority 2010, published 2016)

Legend:
GPR119 = target: T1, GPR119 (Homo sapiens, UniProt Q8TDV5); conditions: CHO cells expressing GPR119; cited from earlier work
T1 construct: expressed in transfected cells; host or cells: CHO
T1 sequence (Q8TDV5 1-335): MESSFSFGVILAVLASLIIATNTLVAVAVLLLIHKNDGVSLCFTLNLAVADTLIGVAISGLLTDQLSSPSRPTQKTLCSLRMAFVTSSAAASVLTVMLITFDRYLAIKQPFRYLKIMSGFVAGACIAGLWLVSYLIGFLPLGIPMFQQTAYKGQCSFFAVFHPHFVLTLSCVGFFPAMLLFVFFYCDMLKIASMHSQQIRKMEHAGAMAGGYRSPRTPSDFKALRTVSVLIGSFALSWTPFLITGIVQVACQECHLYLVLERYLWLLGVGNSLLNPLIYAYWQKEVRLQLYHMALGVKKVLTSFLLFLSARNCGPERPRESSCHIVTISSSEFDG

glucagon receptor = glucagon receptor (UniProt P47871); experiment: cell-based or functional assay
GLP-1 receptor = GLP-1 receptor (UniProt P43220); experiment: cell-based or functional assay
GLP-1 receptor, sequence (P43220 24-463 limits assumed): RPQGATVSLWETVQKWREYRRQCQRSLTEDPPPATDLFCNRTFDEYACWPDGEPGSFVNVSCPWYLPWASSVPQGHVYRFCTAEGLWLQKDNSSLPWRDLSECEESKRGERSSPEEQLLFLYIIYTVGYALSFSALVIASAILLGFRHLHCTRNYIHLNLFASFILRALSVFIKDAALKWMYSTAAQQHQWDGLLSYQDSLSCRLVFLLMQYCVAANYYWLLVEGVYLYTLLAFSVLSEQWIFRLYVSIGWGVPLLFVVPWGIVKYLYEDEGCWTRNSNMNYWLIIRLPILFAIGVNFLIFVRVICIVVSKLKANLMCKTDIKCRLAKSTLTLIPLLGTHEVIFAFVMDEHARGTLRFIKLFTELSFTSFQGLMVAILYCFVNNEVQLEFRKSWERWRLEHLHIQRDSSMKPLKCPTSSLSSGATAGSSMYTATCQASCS

glucagon receptor, sequence (P47871 26-477 limits assumed): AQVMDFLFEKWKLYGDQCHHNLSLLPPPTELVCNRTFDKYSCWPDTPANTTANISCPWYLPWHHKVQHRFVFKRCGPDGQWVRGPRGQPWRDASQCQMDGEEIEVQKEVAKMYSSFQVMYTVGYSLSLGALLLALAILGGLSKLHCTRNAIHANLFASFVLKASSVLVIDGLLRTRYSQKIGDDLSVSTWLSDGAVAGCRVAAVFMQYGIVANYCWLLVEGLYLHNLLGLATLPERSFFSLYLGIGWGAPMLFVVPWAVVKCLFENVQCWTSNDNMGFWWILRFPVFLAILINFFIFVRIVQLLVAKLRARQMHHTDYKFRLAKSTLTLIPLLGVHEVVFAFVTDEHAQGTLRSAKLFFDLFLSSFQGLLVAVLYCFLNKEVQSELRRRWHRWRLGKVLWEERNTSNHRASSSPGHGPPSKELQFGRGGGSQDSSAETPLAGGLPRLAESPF

Row | Compound | cAMP levels (GPR119) | Glu ICso (glucagon receptor) | Glucagon IC50 (glucagon receptor) | GLP-1 EC50 (GLP-1 receptor) | GLP-1 ECso (GLP-1 receptor) | Glucagon IC50 (nM); PA = partial antagonist (glucagon receptor)
1 | CCCCCCCCCCCCCCCCOC[C@@H](O)COP(=O)([O-])OCC[N+](C)(C)C [lyso-platelet activating factor] | increased cAMP levels | – | – | – | – | –
2 | D9, K12E16(Lactam) glucagon(6-39) Cex peptide (Peptide 4 of Table 13) | – | 828 nM | 828 nM | 18 nM | 119 nM | –
3 | E9, E16K20(lactam) glucagon(6-39) Cex peptide (Peptide 3 of Table 13) | – | 42 nM | 42 nM | 36 nM | 36 nM | –
4 | E9, K12, E16 glucagon(6-39) Cex peptide (Peptide 1 of Table 13) | – | 762 nM | 762 nM | – | – | –
5 | E9, K12E16(lactam) glucagon(6-39) Cex peptide (Peptide 2 of Table 13) | – | 2010 nM | 2010 nM | 63 nM | 63 nM | –
6 | [E9, E16K20(lactam), D28]G(2~29) (peptide) | – | – | – | – | – | 49 nM
7 | platelet-activating factor | increased cAMP levels | – | – | – | – | –
